Data on one molecule can be found in US20220340658A1 (WASHINGTON UNIVERSITY, published 2022).

The target of the assay is SARS-CoV-1 spike protein (SARS-CoV-1, UniProt P59594 14-1190). As to the kind of experiment: ELISA, hybridoma supernatant. In general terms: An ELISA detects its analyte on a solid surface through an enzyme-linked reagent.

B1: SARS2-38 (antibody, V domains shown)
VH: QVQLKESGPGLVAPSQSLSITCTVSGFSLTRYGVHWVRQPPGKGLEWLGVIWADGSTYYNSALMSRLSISKDNSKSQVFLNMNSLQTDDTAKYYCARDGRGYDDYWGQGTTLTVSS
VL: QIVLTQSPAIMSASPGEKVTMTCSASSTVSFIYWYQQKPGSSPRLLIYDTSNPASGVPVRFSGSGCGTSYYLTISRMEAEDAATYYCQQWNTYPLTFGAGTKLELK
With B1, the binding result is reported as “no binding”.
